Results reported in patent publication US9944688B2, “Non-peptidyl polymer-insulin multimer and method for producing the same” (HANMI SCIENCE CO., LTD., priority 2011, dated 2018).

Key:
[1] = Comparison of molecular size by size exclusion chromatography in DPBS; assay type: physicochemical; conditions: SEC, DPBS buffer
Protocol: Size exclusion chromatography was performed to indirectly predict the molecular size of subcutaneously injected insulin formulation and its size change according to natural dilution (Havelund et al., 2004). The representative commercial long-acting insulin formulations, Levemir and Lantus, were used as a control group to examine the relative molecular size of the cobalt PEG-insulin hexamer. Chromatography was performed according to the conditions described in Example 4, except that DPBS was used as a buffer solution to create subcutaneous environment.

[2] = Measurement of hydrodynamic volume by size exclusion chromatography; assay type: physicochemical; conditions: for Hydrodynamic volume: SEC Superdex 200 10/300 GL, regression line from standard proteins; for Hydrodynamic volume, times larger than monomer: hexamer versus monomer
Protocol: PEG-insulin conjugates in 20 mM HEPES buffer (pH 8.2) were mixed with a cobalt chloride solution to a ratio of cobalt to hexamer of 3:1. To convert divalent cobalt ions into trivalent cobalt ions, hydrogen peroxide corresponding to twice of the total divalent cobalt ions was added, and left at room temperature for 2 h. Thereafter, cobalt PEG-insulin hexamers were isolated by SEC (size exclusion chromatography).
Column: Superdex 200 16/60 prep grade (GE Healthcare)
Buffer: 20 mM HEPES pH 8.2+0.2 M NaCl
Hydrodynamic volume of the PEG-insulin conjugate or the cobalt PEG-insulin hexamer was measured according to the conditions described in Example 4, except that Superdex 200 10/300 GL was used as a column. The regression line was calculated from the elution volume of standard protein. Partition coefficient (Kav) is defined as follows. Kav=(Ve−V0)/(Vt−V0)
Ve represents the elution volume, V0 represents the void volume determined by Blue dextran, and Vt represents the bed volume.

[3] = tested on: murine fibroblast 3T3-L1 differentiated into adipocyte; assay: In vitro efficacy test: residual sugar in media of differentiated 3T3-L1 adipocytes; assay type: cell-based; conditions: for EC50: differentiated 3T3-L1 adipocytes, 37° C. for 24 h, residual sugar by D-Glucose assay kit
Protocol: In order to differentiate murine fibroblast 3T3-L1 into adipocyte, the cell was inoculated in a 48-well plate containing a 10% FBS/DMEM media containing dexamethasone, IBMX, and insulin at a cell density of 1.0×10^5 per well. The differentiated cells were washed with DPBS three times, and cultured in a serum-free DMEM for 4 h. […] After cultivation at 37° C. for 24 h, the residual sugar concentration in the media was measured using a D-Glucose assay kit (Megazyme), and EC50 values were calculated and shown in Table 1.

[4] = after subcutaneous injection; time for half of the drug to pass the capillary wall; cited from earlier work

Substance | Dissociation coefficient (Kav) [1] | Elution time [1] | Hydrodynamic volume [2] | Hydrodynamic volume, times larger than monomer [2] | EC50 [3] | Relative activity ([3]; relative to human native insulin (100)) | Subcutaneous half-life, times longer than native insulin hexamer [4]
Cobalt PEG (20k)-insulin hexamer: hexamer of PEG (20k)-insulin conjugates complexed with trivalent cobalt ions | 0.01 | 20.12 min | 1,600 kDa | approximately 10 times |  |  | 
PEG (20k)-insulin: human native insulin mono-PEGylated with 20 k mPEG-aldehyde at the amino terminus of the B chain |  |  |  |  | 13.6 ± 0.71 nM |  | 
Cobalt PEG (5k)-insulin hexamer: hexamer of PEG (5k)-insulin conjugates complexed with trivalent cobalt ions | 0.20 | 27.63 min | 300 kDa | approximately 5 times |  |  | 
PEG (5k)-insulin: human native insulin mono-PEGylated with 5 k mPEG-aldehyde at the amino terminus of the B chain |  |  | 60 kDa |  | 9.48 ± 2.77 nM | 60% | 
insulin detemir |  |  |  |  |  |  | 4 times
